Drawing on patent USRE39849 (CHEMOCENTRYX, dated 2007), this text covers binding result and Kd for seven molecules.

Assay [1] concerns the target T1, human CCX CKR with N-terminal Flag epitope, stably expressed on HEK293 cells (human, UniProt Q9NPB9 1-350).
T1 construct: also called HEK293-CCX CKR cells
T1 sequence: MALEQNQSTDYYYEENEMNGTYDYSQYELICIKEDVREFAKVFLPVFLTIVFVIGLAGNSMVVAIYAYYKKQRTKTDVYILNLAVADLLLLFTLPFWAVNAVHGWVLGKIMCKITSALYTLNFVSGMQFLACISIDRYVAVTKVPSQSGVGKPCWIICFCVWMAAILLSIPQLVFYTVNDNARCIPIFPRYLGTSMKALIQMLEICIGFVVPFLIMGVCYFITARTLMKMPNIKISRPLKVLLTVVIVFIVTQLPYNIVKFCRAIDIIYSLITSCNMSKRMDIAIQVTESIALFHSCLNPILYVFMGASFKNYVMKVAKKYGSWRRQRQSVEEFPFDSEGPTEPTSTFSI
Nature of the assay: radioligand binding competition on CCX CKR stable transfectants.

Assay [2] has as its target T1, human CCX CKR with N-terminal Flag …. Nature of the assay: displacement of 125I-ELC (or 125I-TECK) from CCX CKR stable transfectants, cold chemokine at 200 nM. On the technique in general: Loss of bound radioactivity is the signal in a displacement assay; it reports binding, not function.
Assay [3] shares this target. Nature of the assay: radioligand binding competition on CCX CKR stable transfectants (similar experiments, not shown).

B1: murine ELC (ligand, UniProt O70460 26-108, looked up)
chain: GANDAEDCCLSVTQRPIPGNIVKAFRYLLNEDGCRVPAVVFTTLRGYQLCAPPDQPWVDRIIRRLKKSSAKNKGNSTRRSPVS
notes: also called murine version of ELC
For B1, the binding result in assay [1] is “binds”.

B2: mMIP-1 gamma (murine macrophage inflammatory protein-1 gamma) (ligand, UniProt P51670 22-122, looked up)
chain: QITHATETKEVQSSLKAQQGLEIEMFHMGFQDSSDCCLSYNSRIQCSRFIGYFPTSGGCTRPGIIFISKRGFQVCANPSDRRVQRCIERLEQNSQPRTYKQ
notes: also called mMIP-1γ; CCF18
Consider B2, for which the binding result in assay [2] is listed as “binds”.

B3: murine CTACK (ligand, UniProt Q9Z1X0 26-120, looked up)
chain: LPLPSSTSCCTQLYRQPLPSRLLRRIVHMELQEADGDCHLQAVVLHLARRSVCVHPQNRSLARWLERQGKRLQGTVPSLNLVLQKKMYSHPQQQN
notes: also called mCTACK; CCL27
Turning to B3, the Kd (usually the constant that tells how readily two partners part at equilibrium) in assay [3] is ~9 nM.

B4: murine TECK (ligand, UniProt O35903 24-144, looked up)
chain: QGAFEDCCLGYQHRIKWNVLRHARNYHQQEVSGSCNLRAVRFYFRQKVVCGNPEDMNVKRAMRILTARKRLVHWKSASDSQTERKKSNHMKSKVENPNSTSVRSATLGHPRMVMMPRKTNN
notes: also called murine version of TECK
Turning to B4, the binding result in assay [2] is reported as “binds”.

B5: human TECK (thymus expressed chemokine) (ligand, UniProt O15444 24-150, looked up)
chain: QGVFEDCCLAYHYPIGWAVLRRAWTYRIQEVSGSCNLPAAIFYLPKRHRKVCGNPKSREVQRAMKLLDARNKVFAKLHHNTQTFQAGPHAVKKLSSGNSKLSSSKFSNPISSSKRNVSLLISANSGL
notes: also called soluble TECK; cold TECK
Take B5: the binding result in assay [2] is “binds”.

B6: human SLC (secondary lymphoid-tissue chemokine) (ligand, UniProt O00585 24-134, looked up)
chain: SDGGAQDCCLKYSQRKIPAKVVRSYRKQEPSLGCSIPAILFLPRKRSQAELCADPKELWVQQLMQHLDKTPSPQKPAQGCRKDRGASKTGKKGKGSKGCKRTERSQTPKGP
notes: also called 6Ckine; soluble SLC
For the molecule B6, the binding result in assay [2] was “binds”.

B7: human ELC (EBI1 ligand chemokine) (ligand, UniProt Q99731 22-98, looked up)
chain: GTNDAEDCCLSVTQKPIPGYIVRNFHYLLIKDGCRVPAVVFTTLRGRQLCAPPDQPWVERIIQRLQRTSAKMKRRSS
notes: also called MIP-3beta; MIP3beta
Take B7: the binding result in assay [1] is “binds”.
